Measured values reported in a protein production outcome set (Wang et al. 2014).

Experiment: label from the status in PepcDB records

Sequence	protein production
MTELMGQILGDRYELLRELGSHPGRRTYLALDRWHYEQVVLKLLLFGGGITWDDFKLFEREVAVLQTLDHPAIPRYLDYFEINTPDLKGFALVQTYIEAKSLALWQAEGRVFSEGDLRLLADRLLDILIYLHSRQPPVIHRDIKPTNILLGDRSGHDLGKVYLVDFGAVQTAIAGSTRTVVGTYGYMPPEQFGGKTLPASDLYALGMTLIYLATATPPDELPQKELRVQFQPLVSLSPPFIRWLEKMVAPALEERFDSATAARHALKQLDRSAEDASLITKTPPYGSRLQVRESPQGLLVHIPPVGLNASLFFLIPFAVAWNGFLVVWYSLAIASGFWLMAVFATGHLAVGLGLIGGILYRLLGWQVLMVSPKDLRFYEHILGFRWRHAKVLPLEVIEEIELQPRGTCRHQEDDRQQLWSKLVIRAGSQEIELTENAPRVTSRDLEWLAYTLGRYLGRRVTQARQDCRST	failed
SDIGQVIHPDDFDKAAADDYVLHEDGEKIYFLIKSKTDEYCFTNLALVHLDGESAVSSKRVLYRYPYAHYPIRHVMFETAGTVDLDVEIKFEIGGKHYSIDVDKKQLEHVKDLYKALLAIAEKQYEGQKMLEFANSSLNHSVTILGGLRQGDMNVPQTFKDLSQESFDWLQGHYYKWNQKDFGSFYEKYINN	not failed
MEEELPLFSGDSGKPVQATLSSLKMLDVGKWPIFSLCSEEELQLIRQACVFGSAGNEVLYTTVNDEIFVLGTNCCGCLGLGDVQSTIEPRRLDSLNGKKIACLSYGSGPHIVLATTEGEVFTWGHNAYSQLGNGTTNHGLVPCHISTNLSNKQVIEVACGSYHSLVLTSDGEVFAWGYNNSGQVGSGSTVNQPIPRRVTGCLQNKVVVTIACGQMCCMAVVDTGEVYVWGYNGNGQLGLGNSGNQPTPCRVAALQGIRVQRVACGYAHTLVLTDEGQVYAWGANSYGQLGTGNKSNQSYPTPVTVEKDRIIEIAACHSTHTSAAKTQGGHVYMWGQCRGQSVILPHLTHFSCTDDVFACFATPAVTWRLLSVEPDDHLTVAESLKREFDNPDTADLKFLVDGKYIYAHKVLLKIRCEHFRSSLEDNEDDIVEMSEFSYPVYRAFLEYLYTDSISLSPEEAVGLLDLATFYRENRLKKLCQQTIKQGICEENAIALLSAAVKYDAQDLEEFCFRFCINHLTVVTQTSGFAEMDHDLLKNFISKASRVGAFKN	failed
MRYAAVLVEVGGTHRCLPLDSDGDLNIVASFDRRGKHIYTGNAKGKILVLDAETFEVVASFRIIVGTSSATAVKSIEFARRGDAFLINTSDRVIRVYDSKEIIILGKDGEPEPIQKLQDLVNKTTWKKCCFSGDGEYICAGSARQHALYIWEKSIGNLVKILHGTKGELHKQKRIRSFLERLAKDVPRIKNHLTLPNRFLFSSYRYYIRTI	failed
MQQTVTYGAKWKQFLTIFTPIVITQLTLFSMTFFDTTMSGNYSNQALAGVAIGSSFWAPVNAAFSGLLMAITPIIAQLIGAKKEKQVKNTVHNGLYIALFLAFILILINFLVVPTILTHMPVTAEVAHIARHFLNGICIGIPAFFISAILRSFIDSLGLTRVTMLITLCTVPFNIFLNYCFIFGNFGFPEMGGAGSGYATGITYWLVVLVSVILIQTQTRLRKFGIFKGLTALRFSKVKEIIGIGVPNGLTILFETSIFSAVTILMGAFGTETIAAHQSANSVCTLLYAFPLSVASTLTILGGYETGAKRLKDAKQYRHIGMTAAILIGCINGAILFFFRDIIAGFYTNDAELSDLIMHFLVYAILFQFADAVLSPVLGALRGYKDVAITSIIAFISYWLIGLPVGYGLSFTNLGPFGYWIGLSTGLFVAAFILSIRVRKTERKLSLNAKNAEISS	not failed
MNPPEKLLTAENPALRQRAKAMRQEMSEAEAKLWQHLRAGRLNGYKFRRQQPMGNYIVDFMCVTPKLIVEADGGQHAEQAVYDHARTVYLNSLGFTVLRFWNHEILQQTNDVLAEILRVLQELEKQPAR	not failed
MSLDIAVVGIGYVGLVSATCFAELGANVRCIDTDRNKIEQLNSGTIPIYEPGLEKMIARNVKAGRLRFGTEIEQAVPEADIIFIAVGTPAGEDGSADMSYVLDAARSIGRAMSRYILIVTKSTVPVGSYRLIRKAIQEELDKREVLIDFDIASNPEFLKEGNAIDDFMKPDRVVVGVDSDRARELITSLYKPMLLNNFRVLFMDIASAEMTKYAANAMLATRISFMNDVANLCERVGADVSMVRLGIGSDSRIGSKFLYPGCGYGGSCFPKDVKALIRTAEDNGYRMEVLEAVERVNEKQKSILFDKFSTYYKGNVQGRCVAIWGLSFKPGTDDMREAPSLVLIEKLLEVGCRVRVYDPVAMKEAQKRLGDKVEYTTDMYDAVRGAEALFHVTEWKEFRMPDWSALSQAMAASLVIDGRNVYELPADSDFTLLNIGNSAIESEGHHHHHH	not failed
MFIYGHMEKSERKNYLRESREVSYISLALLIISYIVISSIRFSFYLLSIMLIVSLLNFSIYFYMRYKIHARYHKNIDIQGYILEDNSWRYVLSLSVLLTIFIFLEYPFPFIRFYSFILIVNAFVITTWIVSLNGPIIGMLISRSDPLYEPFLYRAMELANAMNINVPDLYILDTRNRIANAFTVSRKESYVFITRLLMNILDVDEVTAVMAHEFAHIKLRHNLKTSIINFAVILFLINIALYGLTLDSFAGIMLPVISIIIYMFFTTFLLNYIKRRNEINADLTAIKYVNPDYLISALHKIENLEIFSRRISDIYLDHPSIDRRISIINRSRSS	failed
MTTTTNKAWRTICKATELVKDSGISALIANSAGEDEQIAIFHIPNSEEKIYAVGNYDPIGQANVLYRGLVGCIDDEPVVSSPLYKQHYSLKTGRCLQEDQTIAVYDIRIENEQVQLFYLEHHHHHH	failed
MIALPAWLTDERLSEDIEPLLRQTDNESLERLAAEAQAVTLRRFGRVISLYTPLYLSNFCSSGCVYCGFASDRRSPRRKLDTDEIEKELLAMKALGVSDVLLLTGERTNSVGFDYLRRAVDIAARHMPRVAVEAFPMSVAEYRGLAECGCTGLTIYQETYDPDHYRELHRWGPKQDFLERLETPERAITGGIRSVGIGALLGLSEPVGEALAVLRHARYLCKTYWKAGVTVSFPRIRPQEGGFQPSFTVSDRFLARMIFAFRIGMPDVDLVLSTRESSNFRDGMAGLGITRMSIASRTTVGGYVEKETAGASQFEVSDNRSVEAFCAALRAKDLEPVFKNWDAAYNNPLPAEECT	failed
MKIAALYDIHGNYPALKEVLKQVKKLSPDLVVLGGDLIAGPMPLETLSLLKHVSTTFKTVGIMGNNDQDIVDIYAKKRVGLSRKATEQLTWIANQLSYKQVSFLRNLLPSISIGNYFFCHAVKNDNTTVFSPQQNKAYIETLFKGVQESYIICGHTHIQFELSLPNKKIINAGSIGMPFSNQFGAQWLWLDDNRIEYKRTIFNQQAAIQLISQTEYPFKNEFIANNLRSTISLSQGYSILNTLIRAQNAQHDLSLEHHHHHH	not failed
MKKAGILGLIITIIVLVPVGLGFNWYHSNYGTKTYYTQITTKGERKTGKDDSGKPYVYYHYSQPGYSDNGVKKELTFDSVLPRSLKMHAYLKVGYNDKRQQVINWEKVNQKDIPQAALNRIQKLEHHHHHH	not failed
GSHMPVPSFGEAMAYFAMVKRYLTSFPIDDRVQSHILHLEHDLVHVTRKNHARQAGVRGLGHQS	not failed
MFETFFSTYLSSTIRFLFLLAPFFVVTMFLALTRGLSMAEKTSIIRRACVSAFILGVILFFAGPLLFNAIGITLNSFRIGAGSLLFLTAISLVNSGTRNHATGLPEEDRDDIAVVPLAIPVMIGPATIGAIMVYGAELKAVPEVAGGLLGLVSGLMILAGLLRLSGYLEKALGKTGLNIMSKISGLILSAMAAEIVLTGIAGFIASTSGA	failed
MNTLIASLEKVILPFAVKIGKQPHVNAIKNGFIRLMPLTLTGAMFVLINNVFLSFGEGSFFYSLGVRLDASTIETLNSLKSIGGSVYNGTLGIMSLMTPFFISMALAEERKVDPLASALLAVAAFMTVTPFNVGEAYAVGANWLGGANIISGMVIGLAVAEMFAFIVRRNWVISLPDSVPASVSRSFSALIPGFIILSIMGLVAFALAHWGTNFHQIIMDGISAPLAKMGSVVGWVYVLFSSLLWFFGVHGSMALAALDSGIMTPFALENVELYNKYGSVEAAVAAGKEFHMWAKPFVDSYIYLGGTGSTLGLIIAIFIASRREDYRQVAKLATPSGIFQINEPILFGLPVIMNPVMFIPFILVQPVLTIITSLAYYSGLIPPITNIAPWTMPVGLGAFFNTNGSIMAMLLSLFNLAVATVIYLPFVAISNKAQSQIDAATESEEDIAKALKF	failed
MSTKLYYIYDPMCSWCWGYRPVWDLLQQHLPKSIDVEYVAGGLAPDSDSAMPIDQQQMIQNHWRTIEQKLGTKFNYDFWRENTARRSTYNACRAAIAAHKQSCQKAMIDAIQQAYYLRALNPSDVDVLVSVAKELSEQTSPTLDVAQFIVDINSSETNKELAKQVTLARELTQQGFPSLVLDVDGVIQQIPLDYSDYKTTLAYIIKKTS	failed
MSNALATLASPADDIAFYEERLRAAMLTGDLKGLETLLADDLAFVDHTGCVKTKQTHLEPYRAGLLKLSRLDLSDAVVRAAGEDGRVVVVRAVTAGVYDGEAFTETLRFTRIWRRTQGPAGWKLVAGHCSVIL	not failed
MPVMQSRIIHLSVEKPWAEVYDFAANPGNMPRWAAGLAGGLEADGEDWIAKGGPLGEVRVNFAPHNEFGVIDHVVTLPDGLKVYNALRVTPNGSGTEVSFTLLRLEGMTDEDFEQDASAITADLEMLKSLLEAD	not failed
MNLELLTLAVGAYAAVLAFLGWLGYRRTRSAADYLVGGREIHPVLMALAYGSTFISTSAIVGFAGVAALMGMGLLWLTMLNILLGVFVAFVVFGRPTRRLGAALDAHTFPELLGRRYRSRFIQGFAGGTIALLMPLYAAAVLIGGARFLEVQLRLDYHMALFVFAAITVGYVLFGGLKGVVYTDAFQAVLMVCGMLVLLVATYAQVGGLSAHQALTDLADQVPPALRAQGHRGWTAMPAAGSPLWWQMVSTIVLGVGIGVLAQPQLTVRFMTVKSGRELHRALVPGGLFLLLMAGVAYVVGSLTNLWYFQRTGKIALAIMTDPATGKPNVDRLMPLYTQAAMPEWFAYLFMLALLAAAMSTLSAQFHAIGTAIGRDLYEQAFRLGGGAERTVLLARAGILAGFAGTVLLAWNLGPGVIAIATALFFGMCAATFLPAFVSALFWARSTRAGVIAGMLAGFGAWALWVLFVHERESAALGVVKALTGRTSLGAGTTWALVDPIVVALPIAALVTVVGSLAGRAAPGAETGGPARTREGGLDAGLR	failed
MPESRVKSEPSPAPYWRRNVRLIVLLLACWAGLTFVPAYFARQLAFDFIGWPFSFWMAAYGAPLAYLILIVIYALVMNRFDARSRTRRDD	failed
MTPPPAPKTPSTLLRRHLGRAVGAAYLAAATAPGPGMWLRHPHRIAVVGLPDLSLNTAPFLLSLVLFTAGLQVPPRDLGRLVGRPAALLTGLALHLLAPLLIVPGVAFALRQSPDSDGGSGLVAAMILVVAMPVAAGATVWTGAGEGDQSTTVGLVLASTLASPLTVPFTVTALCPLLSADYADTLAGAARIAGSGFALTGVVLPCAAGLVARLALPRRALDALLHAAVPTAALGSLLLTYVNASGVLGPFLTRPRPVLLAAALAVAATVCGLSFALGRITARVLRLDAHAGASVTLACGMNNSSASAVLITTALPDRPQVLLPVLAYGLLQKVAAGRVVRGGHHSGRGA	failed
RNLEMIDMQIAGTEQLTAFVTFAAANIGAPEQWLTQYYGNLIERKELFGYWHKGKLLAAGECRLFDQYQTEYADLGMIVAQSNRGQGIAKKVLTFLTKHAATQGLTSICSTESNNVAAQKAIAHAGFTSAHRIVQFEFKHA	failed
MTYSFSKPVSWVFLFTAVIYLVSLSFIQYPATTVLKPIPIVCLIVGVFRTSLSSSAKILLILALVFSLAGDVVLTLPFSLQLELGIACFLLAHCFYITLFLKSFEFNRLHLFYYLPIFLFMGFAAFTMIPYLGNLLIPVMIYFCVLMLMVFSAFQVKKETLTISSGALFFLISDLTLALNLFIYTQADVRIFVMFTYYVAQFLLTFGLVRLYEKGG	failed
